From PMC12554172, “Systematic analysis of the RGS2 degron reveals characteristics of substrate recognition by the F-box protein FBXO44” (The Journal of Biological Chemistry, 2025)

Target: T1, FBXO44^FBA (Homo sapiens, UniProt Q9H4M3)
T1 construct: we expressed and purified only this domain for all in vitro studies; 6xHis (N, cleaved yes); MBP (N, cleaved yes); made in house; host or cells: Escherichia coli Rosetta BL21 (λDE3)
T1 sequence (Q9H4M3 71-252 limits assumed): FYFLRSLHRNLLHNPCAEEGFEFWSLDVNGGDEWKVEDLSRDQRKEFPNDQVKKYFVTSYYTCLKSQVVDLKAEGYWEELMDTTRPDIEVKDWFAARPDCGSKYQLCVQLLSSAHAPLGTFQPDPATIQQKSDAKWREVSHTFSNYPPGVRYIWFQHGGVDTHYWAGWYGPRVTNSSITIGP
Assay: Peptide microarray (PEPperPRINT), FLAG-FBXO44^FBA binding
Settings: Table S1; RGS2^5–16 single-residue substitution; 2 μg/ml FBXO44^FBA overnight at 4 °C, PBS 0.005% Tween pH 7.4, anti-FLAG DyLight800 fluorescence; three independent experiments with three technical replicates each
Text: To do so, we utilized a custom peptide microarray (PEPperPRINT GmbH). The design of this array was twofold: (1) substitution at each position with every other natural eukaryotic amino acid; (2) truncation of the peptide from the C terminus. We assessed the binding of FLAG-FBXO44^FBA to the array utilizing fluorescence immunoreactivity corresponding to the amount of FLAG-FBXO44^FBA bound. […] Substitutions at Asp^12 were not only tolerated but also seemed to improve binding in every case (Fig. 3B). This, combined with the fact that substituting any residue in His^11–Met^16 with Arg, and in most cases with Lys, improved FBXO44^FBA binding, indicating the presence of negative charges at the binding interface.
Figure 2 Systematic mutation of the RGS2 degron alters FBXO44^FBA binding. A custom microarray (PEPperPRINT) was designed where each position of the RGS2^5–16 peptide was substituted for each natural amino acid. We also included truncated peptides on the array. This was incubated with purified FBXO44^FBA and probed with α-FLAG. A, a representative scan of a peptide microarray (top) and a truncated peptide (bottom). B, heatmap of mean fluorescence of quantified microarray scans. The scale represents the mean fluorescence in percentage points across all replicates, normalized to the signal obtained with the original residue at each position. C, heatmap of standard deviation of quantified microarray scans. The scale represents the standard deviation in percentage points across all replicates. […] Residues are color-coded based on properties: blue, positive charge; red, negative charge; orange, uncharged polar; green, hydrophobic; yellow, Cys (C); bright green, Pro (P); and black, Gly (G). […] Results of three independent experiments with three technical replicates each. For a statistical significance summary, see Table S1. FBXO44, F-box only protein 44; RGS2, regulator of G protein signaling 2.
Figure 3 Effects of RGS2^5–16 peptide residue changes on FBXO44^FBA binding. Data are presented as % FLAG immunoreactivity, as compared with the parent peptide residue. […] The original residue is marked in each graph with a vertical dotted line. Boxes extend from the 25th to 75th percentile with a line marking the median. Whiskers extend to the minimum and maximum. Results of three independent experiments with three technical replicates each. Data were analyzed by two-way ANOVA, with Tukey's post hoc test for pairwise comparison (simple effect within columns). Statistical significance is summarized in Table S1 and color-coded according to the legend. FBXO44, F-box only protein 44; RGS2, regulator of G protein signaling 2.
The microarray slide was seated into the incubation tray according to PEPperPRINT's instructions. The array well was then incubated in washing buffer (PBS) with 0.005% Tween (Sigma; P1379, pH 7.4) at room temperature for 15 min on an orbital shaker. Washing buffer was aspirated, and the array was then incubated with Rockland blocking buffer at room temperature for 30 min on an orbital shaker. Blocking buffer was then aspirated, and the array was incubated in staining buffer (washing buffer with 10% Rockland blocking buffer) at room temperature for 15 min on an orbital shaker. Staining buffer was aspirated, and purified FBXO44 FBA domain diluted to 2 μg/ml in staining buffer was added. The array was then placed on an orbital shaker overnight at 4 °C. The FBA domain solution was removed, and an array was washed three times with washing buffer. After the third array was incubated in staining buffer for 15 min at 4 °C on an orbital shaker. The array was then incubated with antibody dilution (anti-FLAG DyLight800 and anti-HA DyLight680, both diluted 1:2000 in staining buffer) for 45 min at 4° C on an orbital shaker. The array was then washed three times with washing buffer. […]

Point of comparison: “C13M: array RGS2^5–16 peptide, C13 substituted by M (MFLAVQHDMRPM; UniProt P41220 5-16, looked up, variant C13M)”, “Mean % difference from parent peptide (FLAG immunoreactivity)” value -88.01%. Against it:
- A8R: array RGS2^5–16 peptide, A8 substituted by R (MFLRVQHDCRPM; UniProt P41220 5-16, looked up, variant A8R) — higher, 27.84%
- C13A: array RGS2^5–16 peptide, C13 substituted by A (MFLAVQHDARPM; UniProt P41220 5-16, looked up, variant C13A) — higher, -72.59%
- C13D: array RGS2^5–16 peptide, C13 substituted by D (MFLAVQHDDRPM; UniProt P41220 5-16, looked up, variant C13D) — higher, -75.39%
- C13E: array RGS2^5–16 peptide, C13 substituted by E (MFLAVQHDERPM; UniProt P41220 5-16, looked up, variant C13E) — higher, -87.12%
- C13F: array RGS2^5–16 peptide, C13 substituted by F (MFLAVQHDFRPM; UniProt P41220 5-16, looked up, variant C13F) — higher, -82.91%
- C13G: array RGS2^5–16 peptide, C13 substituted by G (MFLAVQHDGRPM; UniProt P41220 5-16, looked up, variant C13G) — lower, -89.67%
- C13H: array RGS2^5–16 peptide, C13 substituted by H (MFLAVQHDHRPM; UniProt P41220 5-16, looked up, variant C13H) — higher, -83.62%
- C13I: array RGS2^5–16 peptide, C13 substituted by I (MFLAVQHDIRPM; UniProt P41220 5-16, looked up, variant C13I) — higher, -87.24%
- C13K: array RGS2^5–16 peptide, C13 substituted by K (MFLAVQHDKRPM; UniProt P41220 5-16, looked up, variant C13K) — higher, -53.92%
- C13L: array RGS2^5–16 peptide, C13 substituted by L (MFLAVQHDLRPM; UniProt P41220 5-16, looked up, variant C13L) — lower, -88.83%
- C13N: array RGS2^5–16 peptide, C13 substituted by N (MFLAVQHDNRPM; UniProt P41220 5-16, looked up, variant C13N) — higher, -85.38%
- C13P: array RGS2^5–16 peptide, C13 substituted by P (MFLAVQHDPRPM; UniProt P41220 5-16, looked up, variant C13P) — higher, -84.68%
- C13Q: array RGS2^5–16 peptide, C13 substituted by Q (MFLAVQHDQRPM; UniProt P41220 5-16, looked up, variant C13Q) — higher, -77.02%
- C13R: array RGS2^5–16 peptide, C13 substituted by R (MFLAVQHDRRPM; UniProt P41220 5-16, looked up, variant C13R) — higher, 35.61%
- C13S: array RGS2^5–16 peptide, C13 substituted by S (MFLAVQHDSRPM; UniProt P41220 5-16, looked up, variant C13S) — higher, -87.05%
- C13T: array RGS2^5–16 peptide, C13 substituted by T — higher, -86.63%
- C13V: array RGS2^5–16 peptide, C13 substituted by V (MFLAVQHDVRPM; UniProt P41220 5-16, looked up, variant C13V) — lower, -88.12%
- C13W: array RGS2^5–16 peptide, C13 substituted by W (MFLAVQHDWRPM; UniProt P41220 5-16, looked up, variant C13W) — higher, -46.69%
- C13Y: array RGS2^5–16 peptide, C13 substituted by Y (MFLAVQHDYRPM; UniProt P41220 5-16, looked up, variant C13Y) — higher, -42.98%
- D12C: array RGS2^5–16 peptide, D12 substituted by C — higher, 43.97%
- D12F: array RGS2^5–16 peptide, D12 substituted by F (MFLAVQHFCRPM; UniProt P41220 5-16, looked up, variant D12F) — higher, 34.22%
- D12G: array RGS2^5–16 peptide, D12 substituted by G (MFLAVQHGCRPM; UniProt P41220 5-16, looked up, variant D12G) — higher, 28.74%
- D12H: array RGS2^5–16 peptide, D12 substituted by H (MFLAVQHHCRPM; UniProt P41220 5-16, looked up, variant D12H) — higher, 37.64%
- D12I: array RGS2^5–16 peptide, D12 substituted by I (MFLAVQHICRPM; UniProt P41220 5-16, looked up, variant D12I) — higher, 42.93%
- D12K: array RGS2^5–16 peptide, D12 substituted by K (MFLAVQHKCRPM; UniProt P41220 5-16, looked up, variant D12K) — higher, 124.2%
- D12L: array RGS2^5–16 peptide, D12 substituted by L (MFLAVQHLCRPM; UniProt P41220 5-16, looked up, variant D12L) — higher, 31.38%
- D12M: array RGS2^5–16 peptide, D12 substituted by M (MFLAVQHMCRPM; UniProt P41220 5-16, looked up, variant D12M) — higher, 42.32%
- D12N: array RGS2^5–16 peptide, D12 substituted by N (MFLAVQHNCRPM; UniProt P41220 5-16, looked up, variant D12N) — higher, 55.82%
- D12P: array RGS2^5–16 peptide, D12 substituted by P (MFLAVQHPCRPM; UniProt P41220 5-16, looked up, variant D12P) — higher, 66.54%
- D12Q: array RGS2^5–16 peptide, D12 substituted by Q (MFLAVQHQCRPM; UniProt P41220 5-16, looked up, variant D12Q) — higher, 59.62%
- D12S: array RGS2^5–16 peptide, D12 substituted by S (MFLAVQHSCRPM; UniProt P41220 5-16, looked up, variant D12S) — higher, 59.59%
- D12T: array RGS2^5–16 peptide, D12 substituted by T (MFLAVQHTCRPM; UniProt P41220 5-16, looked up, variant D12T) — higher, 32.23%
